The RNAGym collection of RNA variant scans (doi:10.1073/pnas.2313332121)
This sample holds only a part of the variants without activity.

B1: TPR 5TU (parent)
chain: GGAUCUUCUCGAUCUAACAAAAAAGACAAAUCUGCCACAAAGCUUGAGAGCAUCUUCGGAUGCAGAGGCGGCAGCCUUCGGUGGCGCGAUAGCGCCAACGUUCUCAACUAUGACACGCAAAACGCGUGCUCCGUUGAAUGGAGUUUAUCAUG

Variants of: B1
Experiment: polymerase ribozyme fitness, log enrichment relative to wild type (log ratio); higher = more active; in vitro selection for triplet polymerase activity
Procedure, shortened: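 Each subunit of a heterodimeric triplet polymerase ribozyme was mutagenized into a library by PCR, transcribed, and subjected to one round of in vitro selection, run in triplicate. Libraries were annealed with a biotinylated primer, the partner subunit and triplets, incubated frozen at −7 °C, and extended constructs were gel-excised, captured on streptavidin beads and recovered by RT-PCR. Input and output libraries were sequenced on Illumina, keeping genotypes with ≥10 input reads and ≥1 read per output. Fitness is log base 2 of genotype enrichment divided by wild-type enrichment, from inverse-variance-weighted replicate averages.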

Compared with U82G A97G A98G C118A A119C G140C, C76U C85G is higher in “polymerase ribozyme fitness (log ratio)” value: no more than -4.2 for the first, -0.632 for the second.

First: C76U C85A
Second: C76U G86A
The “polymerase ribozyme fitness (log ratio)” value of the first is lower: -2.44 for the first, -0.246 for the second.

Compared with G83C C129G A137C U145C, C76A G86A is higher in “polymerase ribozyme fitness (log ratio)” value: no more than -4.2 for the first, -2.06 for the second.

First: C76A G140C
Second: G80A
The “polymerase ribozyme fitness (log ratio)” value of the first is lower: -3.36 for the first, -0.0737 for the second.

Compared with G80U, G80C is lower in “polymerase ribozyme fitness (log ratio)” value: -0.409 for the first, -3.5 for the second.

First: C75G G84U
Second: U82C G112U G152A
The “polymerase ribozyme fitness (log ratio)” value of the first is lower: no more than -4.2 for the first, -3.59 for the second.

Compared with C79A C87G, G83C G128A is higher in “polymerase ribozyme fitness (log ratio)” value: no more than -4.2 for the first, -3.88 for the second.

Compared with G80U U82C, C76U A122U is higher in “polymerase ribozyme fitness (log ratio)” value: -1.68 for the first, 0.0697 for the second.

Compared with C75U A91G C99U, U82A G83C C123U is higher in “polymerase ribozyme fitness (log ratio)” value: -3.56 for the first, -1.12 for the second.

Compared with U77C C116U, G74A C85A U90C G141A U148C is lower in “polymerase ribozyme fitness (log ratio)” value: -3.64 for the first, no more than -4.2 for the second.

Going from C76U C93U to U78G C96U A107U G141C A150G, the “polymerase ribozyme fitness (log ratio)” value falls from -2.28 to no more than -4.2.

Compared with G81U U82C C95U A120U, C75A U90C C95U A107G U127G G141C is lower in “polymerase ribozyme fitness (log ratio)” value: -0.64 for the first, no more than -4.2 for the second.

First: C75G C95U
Second: G83U C87U A89C G141A A142G
The “polymerase ribozyme fitness (log ratio)” value of the first is higher: -2.19 for the first, no more than -4.2 for the second.

Compared with G83C G117A, U78A A91U A138C is lower in “polymerase ribozyme fitness (log ratio)” value: 0.556 for the first, no more than -4.2 for the second.

Going from C76A G86C C116G C123A to G83U A120U G141C, the “polymerase ribozyme fitness (log ratio)” value rises from -2.66 to -0.804.

First: U78C A120U G133U G141A
Second: C76A G88C
The “polymerase ribozyme fitness (log ratio)” value of the first is higher: -3.21 for the first, no more than -4.2 for the second.

Compared with G83A U104G A120G, C76A G136A is higher in “polymerase ribozyme fitness (log ratio)” value: -1.21 for the first, 0.971 for the second.

Going from C76U G83C C118U to G81A C85G, the “polymerase ribozyme fitness (log ratio)” value falls from -0.363 to -1.86.

Going from U77C C95U G141A to C76A C85U A137G, the “polymerase ribozyme fitness (log ratio)” value rises from no more than -4.2 to -1.76.

Going from G81U G92C C116A G133C to C75U G92U C105G A115U, the “polymerase ribozyme fitness (log ratio)” value falls from -3.35 to -4.17.

G83C C96U C108G G143U and C75A A89U G143C cannot be ordered by “polymerase ribozyme fitness (log ratio)” value: no more than -4.2 for the first, no more than -4.2 for the second.

First: U82C C96A
Second: C75U G92C U109A U146G
The “polymerase ribozyme fitness (log ratio)” value of the first is higher: -0.964 for the first, -3.93 for the second.

Compared with C75A G86A A97G G136U, G83U A121U is higher in “polymerase ribozyme fitness (log ratio)” value: no more than -4.2 for the first, -0.341 for the second.

First: U77G G92U
Second: G83A A89G U109G U130G C132G
The “polymerase ribozyme fitness (log ratio)” value of the first is higher: -3.92 for the first, no more than -4.2 for the second.

Going from C76U C93G G124A C132A to C75U A91G A147C, the “polymerase ribozyme fitness (log ratio)” value rises from no more than -4.2 to -3.68.

Compared with C75U G136A, C76A U82G is lower in “polymerase ribozyme fitness (log ratio)” value: 1.26 for the first, -1.94 for the second.

Going from G83U A89C to G80U C108G, the “polymerase ribozyme fitness (log ratio)” value falls from -0.953 to no more than -4.2.

Going from C79G U134C U146C to G80C G88C G92A G136U, the “polymerase ribozyme fitness (log ratio)” value falls from -4.11 to no more than -4.2.

First: G74C C116G A150U
Second: C75G C96A
The “polymerase ribozyme fitness (log ratio)” value of the first is lower: no more than -4.2 for the first, -3.52 for the second.

First: C75G C96U
Second: G81C G83U G133A
The “polymerase ribozyme fitness (log ratio)” value of the first is higher: -3.61 for the first, -3.88 for the second.

First: U77G C79G G83C
Second: G80A A98C
The “polymerase ribozyme fitness (log ratio)” value of the first is lower: no more than -4.2 for the first, -2.19 for the second.

First: G81C G92A
Second: G74A G84A A107G
The “polymerase ribozyme fitness (log ratio)” value of the first is higher: -3.5 for the first, no more than -4.2 for the second.

Compared with G81C A120G, U82A C93U A119U U127G G143C is lower in “polymerase ribozyme fitness (log ratio)” value: -0.127 for the first, -4.06 for the second.

First: C76U U139G
Second: C75U A98G G112C A122U
The “polymerase ribozyme fitness (log ratio)” value of the first is higher: -0.649 for the first, no more than -4.2 for the second.

Compared with G80C G92U, G83U A89G C103A C108G U134C A142C is lower in “polymerase ribozyme fitness (log ratio)” value: -3.97 for the first, no more than -4.2 for the second.

First: U78A G133A U139G
Second: C76U C96A
The “polymerase ribozyme fitness (log ratio)” value of the first is lower: no more than -4.2 for the first, 0.322 for the second.

First: U82C C95G U148C
Second: C75U U82C C116A
The “polymerase ribozyme fitness (log ratio)” value of the first is lower: -4.02 for the first, 0.695 for the second.

Going from U82C A115G A138U to U82A C93U U145G, the “polymerase ribozyme fitness (log ratio)” value rises from -4.19 to -2.53.

G83U C95U and G83U C95G are within 0.2 log units of each other in “polymerase ribozyme fitness (log ratio)” value: -1.53 for the first, -1.54 for the second.

First: C75G C76U A97U G141C
Second: G83C A98G
The “polymerase ribozyme fitness (log ratio)” value of the first is lower: no more than -4.2 for the first, -3.71 for the second.

Going from C79U C85G A138G to U82A G126A G133C, the “polymerase ribozyme fitness (log ratio)” value rises from no more than -4.2 to -1.01.

In the case of C76A G143U, the “polymerase ribozyme fitness (log ratio)” value is reported as -3.02.
